According to paper PMC7593969:

Assays:
LMP7-Myc, P28062-2 = test: co-IP (anti-Flag IP, anti-Myc IB), band intensity quantified; details: 293T cells cotransfected for 24 h; parent: 100; read off a plot
[1] = molecular target: Nef(1 to 115)-(L112A)-GFP-Flag (HIV-1 (NL4-3)) (UniProt P03406); test: co-IP; HEK293T cotransfected 24 h with LMP7-Myc and GFP-Flag or Nef(1 to 115)-GFP-Flag constructs; anti-Flag IP; blot with anti-Myc
[2] = molecular target: Nef(1 to 115)-(Y115A)-GFP-Flag (HIV-1 (NL4-3)) (UniProt P03406); test: as above
[3] = molecular target: Nef(1 to 115)-(L112A/Y115A)-GFP-Flag (HIV-1 (NL4-3)) (UniProt P03406); test: as above
proLMP7-Flag = proLMP7-Flag (UniProt P28062); test: co-IP; HEK293T cotransfected 24 h with Nef-HA constructs and LMP7-Flag constructs; RIPA lysates; anti-Flag antibody and protein G-Sepharose at 4°C overnight; blot with anti-HA
LMP7-His (biotinylated) = LMP7-His (biotinylated) (UniProt P28062); test: BLI; biotinylated LMP7 on streptavidin biosensors; GST or Nef-GST in solution; PBS; 1:1 binding model

Sequence of LMP7-Myc, P28062-2 (P28062 other isoform, or with tags, fused parts or gaps): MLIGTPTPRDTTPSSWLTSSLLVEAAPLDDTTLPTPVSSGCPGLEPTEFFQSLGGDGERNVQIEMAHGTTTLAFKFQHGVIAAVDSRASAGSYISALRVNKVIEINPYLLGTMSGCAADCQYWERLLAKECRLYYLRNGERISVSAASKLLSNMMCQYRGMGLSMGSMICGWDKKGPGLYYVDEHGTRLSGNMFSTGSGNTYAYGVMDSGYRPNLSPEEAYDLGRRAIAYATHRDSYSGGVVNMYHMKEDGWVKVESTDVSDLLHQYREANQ

Substance	percent of parent (LMP7-Myc, P28062-2)	also measured
Nef(1 to 115)-GFP-Flag (from UniProt P03406) I109A	60%	–
Nef(1 to 115)-GFP-Flag (from UniProt P03406) 101-104A	53%	–
LMP7-Myc (from UniProt P28062-2 1-272) (natural protein)	–	relative co-IP band intensity (Nef(1 to 115) = 100%) [1]: 19%; relative co-IP band intensity (Nef(1 to 115) = 100%) [2]: 14%; relative co-IP band intensity (Nef(1 to 115) = 100%) [3]: 1.4%
Nef(1 to 130)-HA (from UniProt P03406 1-130) (domain or fragment)	–	strength of the interaction (co-IP band) relative to Nef(1 to 115) (proLMP7-Flag): 40 % higher; strength of the interaction (co-IP band) relative to Nef(1 to 149) (proLMP7-Flag): 20 % stronger
Nef(1 to 115)-GFP-Flag (from UniProt P03406) I114A	47%	–
Nef(1 to 115)-GFP-Flag (from UniProt P03406) W113A; I114A; Y115A	31%	–
Nef(1 to 115)-GFP-Flag (from UniProt P03406) W113A	97%	–
Nef(1 to 115)-GFP-Flag (from UniProt P03406) L110A	60%	–
Nef(1 to 115)-GFP-Flag (from UniProt P03406) I109A; L110A; D111A; L112A	28%	–
Nef-GST (from UniProt P03406 1-206) (natural protein)	–	BLI wavelength shift (LMP7-His (biotinylated)): 71.1 pm; Kd (LMP7-His (biotinylated)): 735 nM
Nef(1 to 115)-GFP-Flag (from UniProt P03406) D111A	130%	–
Nef(1 to 115)-GFP-Flag (from UniProt P03406) 105-108A	120%	–
